± gives the standard deviation of the averaged measurements.
Tested on: ATP
Experiment: switch fluorescence ratio, 500 uM ATP over buffer (Cy3 cluster intensity, sum of 5 cycles each) (fold (ratio)); higher = stronger signal-on switching upon ATP binding; sequences stand for … in TCGTCGGCAGCGTCAGATGTGTATAAGAGACAGTTTTTTTTTTTTTTTTTTTTTTTTT…TC
Conditions: aptamer strand: ATP DNA aptamer (quencher-CACCTGGGGGAGTATTGCGGAGGAAGG + anchor), 100 nM annealed; ATP concentration: 500 uM
Procedure, shortened: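 Per cluster, summed Cy3 intensity from the target cycles was divided by that from the buffer cycles to give the fluorescence ratio, then averaged per switch-domain sequence. Clusters outside 100-1000 RFU were excluded. The Cy3-labelled switching-strand clusters, on a modified Illumina MiSeq flow-cell, were annealed to 100 nM quencher-labelled ATP aptamer and imaged in selection buffer, then after 15 min with 500 uM ATP at 22 °C, for five cycles with NaOH stripping and re-annealing between them.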
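Note: ATP exposure 15 min at 22 °C before imaging.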

Sequence	switch fluorescence ratio
CATTATGGAG	1 ± 0.047
CATTCAGTCG	1 ± 0.026
CATTCAGTTC	1 ± 0.058
CATTCATGCT	0.971 ± 0.033
CATTCGGATG	1.01 ± 0.055
CATTGAGTAG	1.01 ± 0.024
CATTGAGTCG	0.98 ± 0.052
CATTGCAA	1 ± 0.085
CATTGCAAAC	5.13 ± 0.53
CATTGCTCTG	1.02 ± 0.026
CATTGGGGGG	0.99 ± 0.038
CATTGGTAGG	0.987 ± 0.019
CATTGGTTTG	1.01 ± 0.048
CATTGTCTTC	1.05 ± 0.055
CATTGTGGGA	0.997 ± 0.023
CATTGTGGGC	0.9621 ± 0.0034
CATTTAAAGC	1 ± 0.018
CATTTAGCAC	1.131 ± 0.0021
CATTTAGCTG	0.9875 ± 0.0055
CATTTAGGGC	1.02 ± 0.054
CATTTAGGGG	0.995 ± 0.036
CATTTAGGTA	1.001 ± 0.0078
CATTTATAGT	0.9799 ± 0.0083
CATTTATGTG	0.978 ± 0.021
CATTTCAACC	1.019 ± 0.0021

Sequence	switch fluorescence ratio
CATTTGAGGT	1 ± 0.027
CATTTGATCG	1.03 ± 0.013
CATTTGCGCA	1.022 ± 0.0084
CATTTGGATT	1.04 ± 0.012
CATTTGGGGT	0.989 ± 0.017
CATTTTATAA	0.999 ± 0.014
CATTTTCCGC	1.81 ± 0.57
CATTTTCTC	1.038 ± 0.0086
CATTTTGTCT	1.018 ± 0.0047
CCAAAAAAGG	0.9625 ± 0.005
CCAAAAGGAT	1.01 ± 0.012
CCAAAAGTAT	1.03 ± 0.081
CCAAAATTCC	1.12 ± 0.034
CCAAACAGGA	1.006 ± 0.0063
CCAAACGATT	1.02 ± 0.027
CCAAAGGGTT	1.036 ± 0.0034
CCAAATAGGA	1.01 ± 0.013
CCAAATGAGT	0.989 ± 0.012
CCAACTGGGA	1.05 ± 0.012
CCAAGAGTCG	1.08 ± 0.046
CCAAGCGCTG	1.06 ± 0.03
CCAAGGAAAA	1.04 ± 0.17
CCAAGGCAGG	1.35 ± 0.069
CCAAGGCGGG	1.04 ± 0.017
CCAAGGGCTG	1.15 ± 0.19

Sequence	switch fluorescence ratio
CCAAGGTCCT	1.01 ± 0.014
CCAAGTGCTG	0.994 ± 0.018
CCAAGTGGGA	0.985 ± 0.01
CCAAGTGGGC	1.03 ± 0.053
CCAAGTGTAT	1.02 ± 0.055
CCAAGTTGTG	1.03 ± 0.074
CCAAGTTTTT	0.98 ± 0.031
CCAATCGGGG	1.03 ± 0.087
CCAATGAGTC	0.971 ± 0.013
CCAATGGTGG	1.01 ± 0.043
CCAATGTGCG	0.9925 ± 0.0092
CCAATTCAAG	0.9977 ± 0.0073
CCACAAAATT	1.1 ± 0.18
CCACAGAAAA	1.033 ± 0.006
CCACAGGGCA	1.34 ± 0.059
CCACCCACAT	1.48 ± 0.065
CCACTTGAAA	1 ± 0.018
CCACTTGGTC	1.06 ± 0.064
CCAGACAGGG	0.956 ± 0.045
CCAGACATGA	1.02 ± 0.012
CCAGAGGAAC	0.948 ± 0.019
CCAGAGGTGT	1.6 ± 0.064
CCAGCATAGA	1.14 ± 0.044
CCAGCTGGAG	0.997 ± 0.025
CCAGCTGGAT	1.015 ± 0.0088

Sequence	switch fluorescence ratio
CCAGGCAAGC	2.46 ± 1.3
CCAGGCATGT	1.05 ± 0.012
CCAGGCGCGG	1.05 ± 0.055
CCAGGCTTAA	1.06 ± 0.036
CCAGGGAGCC	1.1 ± 0.17
CCAGGGCGGC	0.854 ± 0.019
CCAGGGCTAG	1.02 ± 0.062
CCAGGGGGGC	1.16 ± 0.061
CCAGGGGTGG	1.02 ± 0.064
CCAGGGTGCT	2 ± 0.39
CCAGGTAACT	1.05 ± 0.018
CCAGGTAAGT	1.11 ± 0.11
CCAGGTAGAG	1.32 ± 0.13
CCAGGTGTTA	2.31 ± 1.8
CCAGGTTAAT	1.036 ± 0.0033
CCAGGTTGTT	1.551 ± 0.0043
CCAGGTTTGC	1.08 ± 0.067
CCAGGTTTTT	1.04 ± 0.017
CCAGTAATTG	1.04 ± 0.022
CCAGTAGACT	1.06 ± 0.035
CCAGTAGGTC	1.03 ± 0.022
CCAGTCATGA	1.014 ± 0.0027
CCAGTGAGTC	1.07 ± 0.041
CCAGTTGATG	0.991 ± 0.057
CCAGTTTACT	1.01 ± 0.042

Sequence	switch fluorescence ratio
CCAGTTTGGT	0.9871 ± 0.0073
CCAGTTTGTG	1.018 ± 0.0037
CCAGTTTTTC	1.01 ± 0.019
CCAGTTTTTT	1.002 ± 0.0099
CCATACGTCA	1.25 ± 0.054
CCATACTTAT	1.042 ± 0.0059
CCATAGCAGG	3.97 ± 0.9
CCATAGCTCA	2.016 ± 0.016
CCATAGTGAC	2.18 ± 0.18
CCATATAGGC	1.03 ± 0.065
CCATCATAGG	1.0149 ± 0.00068
CCATCATTTT	0.99 ± 0.041
CCATCGGTGG	1 ± 0.047
CCATCGTATG	0.971 ± 0.015
CCATGAAAAT	1.029 ± 0.003
CCATGGAGTA	1 ± 0.019
CCATGGCGGG	0.97 ± 0.028
CCATGGCTGG	1 ± 0.016
CCATGGGGGA	1.01 ± 0.0019
CCATGGTACG	1.051 ± 0.01
CCATGTGTG	1.02 ± 0.024
CCATGTTAAG	0.985 ± 0.02
CCATGTTGCG	0.982 ± 0.012
CCATTCCCAT	1.26 ± 0.28
CCATTGTAAG	1.02 ± 0.05

Sequence	switch fluorescence ratio
CCATTGTAGT	0.99 ± 0.013
CCATTGTGAC	1.06 ± 0.018
CCATTGTGCA	1.01 ± 0.013
CCCAATTTGA	1.06 ± 0.014
CCCAGAGTTC	1.06 ± 0.023
CCCAGATTTT	1.02 ± 0.03
CCCAGTCAGA	1.033 ± 0.0078
CCCAGTTTGG	1.01 ± 0.015
CCCATCCGGT	1.12 ± 0.023
CCCATGCGTT	1.03 ± 0.063
CCCATGGGGG	1.01 ± 0.028
CCCATTTAGG	1.04 ± 0.084
CCCATTTTTT	1 ± 0.049
CCCCAAAAGT	1.12 ± 0.14
CCCCAATTT	0.999 ± 0.025
CCCCACGGCC	1.16 ± 0.028
CCCCAGGGGG	3.38 ± 2.3
CCCCCGGTTT	1.12 ± 0.044
CCCCGGTTA	1.46 ± 0.12
CCCCTCGAGG	0.966 ± 0.049
CCCGATCATA	1.02 ± 0.017
CCCGCAGTGT	4.3 ± 1.4
CCCGGGGCTG	1.024 ± 0.0073
CCCGGTATAT	1.22 ± 0.12
CCCGGTTTTA	1.06 ± 0.12

Sequence	switch fluorescence ratio
CCCGTAGGCT	0.973 ± 0.014
CCCTGGGTCT	1.028 ± 0.0089
CCCTTGCGGT	1.03 ± 0.047
CCCTTTTTTT	1.07 ± 0.037
CCGAAGGGGA	1.65 ± 0.88
CCGAATCGGA	1.02 ± 0.054
CCGAATTCT	1.13 ± 0.029
CCGACCTGTA	1.94 ± 0.22
CCGAGATCGT	1.02 ± 0.033
CCGAGGAGAG	1.1 ± 0.037
CCGATAGGCA	1.124 ± 0.0038
CCGATAGGGG	1.05 ± 0.093
CCGCAGAGCA	1.79 ± 0.043
CCGCATTGGT	4.77 ± 0.66
CCGCCAGGGG	3.42 ± 1.8
CCGCCATAAG	3.42 ± 0.68
CCGCCTTAAT	2.21 ± 0.084
CCGCGACAGG	3.04 ± 0.22
CCGCGGCGAA	1.47 ± 0.22
CCGCGGGGTT	1.2 ± 0.084
CCGCGGGTCG	1.046 ± 0.0013
CCGCGTACGG	2.03 ± 0.22
CCGCGTTATG	1.67 ± 0.078
CCGCTAAGGT	1.39 ± 0.092
CCGCTACTGT	2.69 ± 0.39

Sequence	switch fluorescence ratio
CCGCTCAGTT	1.355 ± 0.0058
CCGCTCGATG	1.37 ± 0.023
CCGCTTGGTT	1.23 ± 0.028
CCGCTTTGTT	1.24 ± 0.072
CCGGAAAAAG	1.02 ± 0.074
CCGGAAAGAG	1.06 ± 0.02
CCGGACAGCG	0.99 ± 0.038
CCGGACAGTG	1.09 ± 0.099
CCGGACGTTC	1.53 ± 0.042
CCGGAGGTCG	0.958 ± 0.012
CCGGATCGGC	1.04 ± 0.029
CCGGATTATA	1.046 ± 0.0059
CCGGATTTTG	0.981 ± 0.012
CCGGCCGGGG	1.01 ± 0.059
CCGGCGGTTT	1.04 ± 0.029
CCGGCTTGCT	1.03 ± 0.036
CCGGCTTTAG	0.99 ± 0.015
CCGGGAGAAA	1.28 ± 0.02
CCGGGAGGTA	0.991 ± 0.021
CCGGGCTGGG	1.03 ± 0.018
CCGGGGAACG	1.08 ± 0.048
CCGGGGAATG	1.04 ± 0.052
CCGGGGAGGA	1.06 ± 0.026
CCGGGGAGGG	1.08 ± 0.053
CCGGGGATTG	1.01 ± 0.027

From the supplement of paper PMC10126150
